For the test, the target named is T1, Gal4-fused SMAD4 (UniProt Q13485 1-552).
T1 sequence (looked up): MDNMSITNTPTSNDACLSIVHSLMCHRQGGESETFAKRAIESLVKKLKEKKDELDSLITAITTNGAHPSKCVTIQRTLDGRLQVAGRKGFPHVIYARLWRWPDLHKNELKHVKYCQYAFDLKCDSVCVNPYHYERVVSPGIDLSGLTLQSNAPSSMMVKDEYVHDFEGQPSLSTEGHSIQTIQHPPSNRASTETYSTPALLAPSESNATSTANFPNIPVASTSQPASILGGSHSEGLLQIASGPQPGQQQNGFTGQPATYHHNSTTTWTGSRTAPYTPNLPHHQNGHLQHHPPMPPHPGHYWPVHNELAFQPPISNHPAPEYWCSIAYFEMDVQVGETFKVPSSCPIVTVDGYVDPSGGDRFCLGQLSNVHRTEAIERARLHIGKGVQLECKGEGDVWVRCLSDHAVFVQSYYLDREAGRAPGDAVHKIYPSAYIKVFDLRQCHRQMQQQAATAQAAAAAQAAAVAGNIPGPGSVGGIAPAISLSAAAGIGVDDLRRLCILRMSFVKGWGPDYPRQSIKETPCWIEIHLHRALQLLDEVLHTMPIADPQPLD
The test can be described thus: two-hybrid.

Here are results for one molecule from PMC8278322 (Cancer research, 2020).

B1: pVP16-fused FOXL2^C134W (natural protein, human, UniProt P58012 1-376, looked up)
chain: MMASYPEPEDAAGALLAPETGRTVKEPEGPPPSPGKGGGGGGGTAPEKPDPAQKPPYSYVALIAMAIRESAEKRLTLSGIYQYIIAKFPFYEKNKKGWQNSIRHNLSLNECFIKVPREGGGERKGNYWTLDPAWEDMFEKGNYRRRRRMKRPFRPPPAHFQPGKGLFGAGGAAGGCGVAGAGADGYGYLAPPKYLQSGFLNNSWPLPQPPSPMPYASCQMAAAAAAAAAAAAAAGPGSPGAAAVVKGLAGPAASYGPYTRVQSMALPPGVVNSYNGLGGPPAAPPPPPHPHPHPHAHHLHAAAAPPPAPPHHGAAAPPPGQLSPASPATAAPPAPAPTSAPGLQFACARQPELAMMHCSYWDHDSKTGALHSRLDL
Take B1: the “fold luciferase activity against pVP16-fused wildtype FOXL2” value is around 20 fold.
